In PMC4491846:

Target: Tulane virus (TV) virions, CsCl gradient-purified (Tulane virus)

## Maackia amurensis leukoagglutinin (MAL), biotinylated (from UniProt P0DKL3 30-278) (natural protein)
  TV infectivity in LLC-MK2 cells by plaque assay after treatment with MAL (dose series up to 100 μg/mL; maximum enhancement at 50 μg/mL), percent of the untreated control: 262%
